Laboratory results: paper PMC9780223, “Structural insights into the covalent regulation of PAPP-A activity by proMBP and STC2” (Cell Discovery, 2022)

B1: pregnancy-associated plasma protein A (PAPP-A), endogenous, from pregnant human plasma (enzyme, human (endogenous in pregnant plasma), UniProt Q13219 82-1627, looked up)
chain: EARGATEEPSPPSRALYFSGRGEQLRLRADLELPRDAFTLQVWLRAEGGQRSPAVITGLYDKCSYISRDRGWVVGIHTISDQDNKDPRYFFSLKTDRARQVTTINAHRSYLPGQWVYLAATYDGQFMKLYVNGAQVATSGEQVGGIFSPLTQKCKVLMLGGSALNHNYRGYIEHFSLWKVARTQREILSDMETHGAHTALPQLLLQENWDNVKHAWSPMKDGSSPKVEFSNAHGFLLDTSLEPPLCGQTLCDNTEVIASYNQLSSFRQPKVVRYRVVNLYEDDHKNPTVTREQVDFQHHQLAEAFKQYNISWELDVLEVSNSSLRRRLILANCDISKIGDENCDPECNHTLTGHDGGDCRHLRHPAFVKKQHNGVCDMDCNYERFNFDGGECCDPEITNVTQTCFDPDSPHRAYLDVNELKNILKLDGSTHLNIFFAKSSEEELAGVATWPWDKEALMHLGGIVLNPSFYGMPGHTHTMIHEIGHSLGLYHVFRGISEIQSCSDPCMETEPSFETGDLCNDTNPAPKHKSCGDPGPGNDTCGFHSFFNTPYNNFMSYADDDCTDSFTPNQVARMHCYLDLVYQGWQPSRKPAPVALAPQVLGHTTDSVTLEWFPPIDGHFFERELGSACHLCLEGRILVQYASNASSPMPCSPSGHWSPREAEGHPDVEQPCKSSVRTWSPNSAVNPHTVPPACPEPQGCYLELEFLYPLVPESLTIWVTFVSTDWDSSGAVNDIKLLAVSGKNISLGPQNVFCDVPLTIRLWDVGEEVYGIQIYTLDEHLEIDAAMLTSTADTPLCLQCKPLKYKVVRDPPLQMDVASILHLNRKFVDMDLNLGSVYQYWVITISGTEESEPSPAVTYIHGSGYCGDGIIQKDQGEQCDDMNKINGDGCSLFCRQEVSFNCIDEPSRCYFHDGDGVCEEFEQKTSIKDCGVYTPQGFLDQWASNASVSHQDQQCPGWVIIGQPAASQVCRTKVIDLSEGISQHAWYPCTISYPYSQLAQTTFWLRAYFSQPMVAAAVIVHLVTDGTYYGDQKQETISVQLLDTKDQSHDLGLHVLSCRNNPLIIPVVHDLSQPFYHSQAVRVSFSSPLVAISGVALRSFDNFDPVTLSSCQRGETYSPAEQSCVHFACEKTDCPELAVENASLNCSSSDRYHGAQCTVSCRTGYVLQIRRDDELIKSQTGPSVTVTCTEGKWNKQVACEPVDCSIPDHHQVYAASFSCPEGTTFGSQCSFQCRHPAQLKGNNSLLTCMEDGLWSFPEALCELMCLAPPPVPNADLQTARCRENKHKVGSFCKYKCKPGYHVPGSSRKSKKRAFKTQCTQDGSWQEGACVPVTCDPPPPKFHGLYQCTNGFQFNSECRIKCEDSDASQGLGSNVIHCRKDGTWNGSFHVCQEMQGQCSVPNELNSNLKLQCPDGYAIGSECATSCLDHNSESIILPMNVTVRDIPHWLNPTRVERVVCTAGLKWYPHPALIHCVKGCEPFMGDNYCDAINNRAFCNYDGGDCCTSTVKTKKVTPFPMSCDLQGDCACRDPQAQEHSRKDLRGYSHG
modifications: glycosylation sites assigned in the density (positions not given)
notes: pregnancy-associated plasma protein A, human, full-length mature PAPP-A, Arg1-Gly1547; numbers count on: the mature protein; source: purified from pregnant human plasma as the PAPP-A·proMBP complex (PEG6000, SOURCE-15Q, MonoS, Superose-6)
B2: proform of eosinophil major basic protein (proMBP), endogenous, from pregnant human plasma (natural protein, human (endogenous in pregnant plasma), UniProt P13727 17-222, looked up)
chain: LHLRSETSTFETPLGAKTLPEDEETPEQEMEETPCRELEEEEEWGSGSEDASKKDGAVESISVPDMVDKNLTCPEEEDTVKVVGIPGCQTCRYLLVRSLQTFSQAWFTCRRCYRGNLVSIHNFNINYRIQCSVSALNQGQVWIGGRITGSGRCRRFQWVDGSRWNFAYWAAHQPWSRGGHCVALCTRGGHWRRAHCLRRLPFICSY
notes: proform of eosinophil major basic protein, human, encoded by PRG2; only residues 88-222 traced in the map, residues 1-87 invisible; Secreted proform; the signal peptide should be absent (surmise); Model built on PDB 1H8U; also called PM; PRG2; source: purified from pregnant human plasma as the PAPP-A·proMBP complex (PEG6000, SOURCE-15Q, MonoS, Superose-6)
B3: recombinant proMBP (modulator protein) (natural protein, UniProt P13727 17-222, looked up)
chain: B2 chain
notes: proform of eosinophil major basic protein, encoded by PRG2; construct not described; source: co-expressed with PAPP-A for the cleavage assay

Experiments:
[1] = molecular target: the molecule itself; assay: cryo-EM structure; PAPP-A·proMBP complex purified from pregnant human plasma, 0.2 mg/mL, in PBS pH 7.4; 2:2 map with C2 symmetry and half map after symmetry expansion
[2] = molecular target: B1; assay: as above; conditions: both partners purified
[3] = molecular target: purified recombinant PAPP-A free of STC2 (apo PAPP-A) (human, UniProt Q13219 82-1627, fluorescently labeled with Protein Labeling Kit RED-NHS (in MST)); assay: MST; RED-NHS labeled PAPP-A (24 nM, mixed with an equal volume of ligand), ligand serially diluted; PBS with 0.05% Tween-20, room temperature, 30 min; 1:1 binding mode; n = 3; conditions: both partners purified

Binder: B1
stoichiometry N [1]: 2

Binder: B2
binding result [2]: binds

Binder: B3
Kd [3]: ~6.15 µM
